This sample holds only a part of the variants without activity.
Columns and labels:
biotinyl-Val-oxazolone = assay: self-aminoacylation, catalytic enhancement (BVO) (fold over background); higher = more active; k-Seq, kA / k0A0; sequences stand for … in GGGAAUGGAUCCACAUCUACGAAUUC…UUCACUGCAGACUUGACGAAGCUG
In short: (§1)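 Catalytic enhancement equals the median kA over the uncatalyzed rate, the latter read from the low-activity peak of a bimodal Gaussian fit. Values of kA came from fitting each sequence's fraction reacted to a pseudo-first-order model, with 1000 bootstraps. Reacted RNA was captured with streptavidin and quantified by triplicate qPCR and Illumina sequencing after 90 minutes at room temperature with 2–1250 μM biotinyl-aminoacyl-oxazolone and 0.43 μM mutagenized RNA pools bearing a 21-nt variable region.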

biotinyl-Phe-oxazolone = assay: self-aminoacylation, catalytic enhancement (BFO) (fold over background); higher = more active; k-Seq, kA / k0A0; sequences stand for … in GGGAAUGGAUCCACAUCUACGAAUUC…UUCACUGCAGACUUGACGAAGCUG
In short: as §1

biotinyl-Leu-oxazolone = assay: self-aminoacylation, catalytic enhancement (BLO) (fold over background); higher = more active; k-Seq, kA / k0A0; sequences stand for … in GGGAAUGGAUCCACAUCUACGAAUUC…UUCACUGCAGACUUGACGAAGCUG
In short: as §1

biotinyl-Trp-oxazolone = assay: self-aminoacylation, catalytic enhancement (BWO) (fold over background); higher = more active; k-Seq, kA / k0A0; sequences stand for … in GGGAAUGGAUCCACAUCUACGAAUUC…UUCACUGCAGACUUGACGAAGCUG
In short: as §1

biotinyl-Ile-oxazolone = assay: self-aminoacylation, catalytic enhancement (BIO) (fold over background); higher = more active; k-Seq, kA / k0A0; sequences stand for … in GGGAAUGGAUCCACAUCUACGAAUUC…UUCACUGCAGACUUGACGAAGCUG
In short: as §1

biotinyl-Met-oxazolone = assay: self-aminoacylation, catalytic enhancement (BMO) (fold over background); higher = more active; k-Seq, kA / k0A0; sequences stand for … in GGGAAUGGAUCCACAUCUACGAAUUC…UUCACUGCAGACUUGACGAAGCUG
In short: as §1

Row | Sequence | self-aminoacylation (biotinyl-Val-oxazolone) | self-aminoacylation (biotinyl-Phe-oxazolone) | self-aminoacylation (biotinyl-Leu-oxazolone) | self-aminoacylation (biotinyl-Trp-oxazolone) | self-aminoacylation (biotinyl-Ile-oxazolone) | self-aminoacylation (biotinyl-Met-oxazolone)
1 | AUUGACCUAGGUCAUCGUGUG [Fam2.2 aminoacylation ribozyme variant] | 1.18 | 4.26 | 1.36 | 1.35 | 1.36 | 1.04
2 | AUUGACCUAUGUCAUCGGGUG [Fam2.2 aminoacylation ribozyme variant] | 3.64 | 28.4 | 7.74 | 5.17 | 3.81 | 5.68
3 | AUUGAUCUAGGUCAUCGGGUG [Fam2.2 aminoacylation ribozyme variant] | 3.8 | 35.2 | 7.89 | 7.06 | 4.45 | 6.53
4 | AUUGCACUGGUCAUCGAGUGA [Fam2.1 aminoacylation ribozyme variant] | 3.93 | 32.7 | 6.88 | 6.67 | 3.68 | 6.01
5 | AUUGCCCCGGUCAUCGAGUGA [Fam2.1 aminoacylation ribozyme variant] | 3.18 | 37.5 | 6.75 | 6.57 | 2.79 | 5.22
6 | AUUGCCCUGGGCAUCGAGUGA [Fam2.1 aminoacylation ribozyme variant] | 3.27 | 44.5 | 8.04 | 7.29 | 2.96 | 6.92
7 | AUUGCCCUGGUAAUCGAGUGA [Fam2.1 aminoacylation ribozyme variant] | 3.92 | 56 | 7.99 | 9.18 | 3.71 | 8.63
8 | AUUGCCCUGGUCAUCGACUGA [Fam2.1 aminoacylation ribozyme variant] | 0.951 | 1.08 | 0.735 | 1.35 | 0.899 | 0.941
9 | AUUGCCCUGGUCAUCGAGAGA [Fam2.1 aminoacylation ribozyme variant] | 1.2 | 1.73 | 1.5 | 0.807 | 1.2 | 1.39
10 | AUUGCCCUGGUCAUCGAGUAA [Fam2.1 aminoacylation ribozyme variant] | 4.02 | 28.4 | 8.75 | 8.07 | 3.56 | 8.54
11 | AUUGCCGUGGUCAUCGAGUGA [Fam2.1 aminoacylation ribozyme variant] | 3.45 | 33.7 | 6.18 | 5.71 | 2.89 | 4.92
12 | AUUUAACUAGGUCAUCGGGUG [Fam2.2 aminoacylation ribozyme variant] | 2.72 | 31.4 | 5.03 | 3.75 | 2.6 | 4.3
13 | AUUUACCUACGUCAUCGGGUG [Fam2.2 aminoacylation ribozyme variant] | 3.17 | 32.2 | 6.25 | 4.65 | 2.56 | 4.54
14 | AUUUACCUAGGUCAUCGGGUG [Fam2.2 aminoacylation ribozyme variant] | 15.4 | 235 | 45 | 26.1 | 18.3 | 33.2
15 | AUUUACCUAGGUCAUCUGGUG [Fam2.2 aminoacylation ribozyme variant] | 1.95 | 16.8 | 3.75 | 3 | 2.15 | 2.73
16 | AUUUACCUAGGUCAUUGGGUG [Fam2.2 aminoacylation ribozyme variant] | 2.26 | 19.7 | 3.79 | 3.11 | 2.34 | 3.54
17 | AUUUACCUGGUCAUCGAGUGA [Fam2.1 aminoacylation ribozyme variant] | 4.29 | 8.89 | 7.77 | 8.91 | 4 | 7.97
18 | AUUUACCUUGGUCAUCGGGUG [Fam2.2 aminoacylation ribozyme variant] | 4.81 | 45.7 | 8.83 | 6.6 | 4.48 | 7.16
19 | AUUUACUUAGGUCAUCGGGUG [Fam2.2 aminoacylation ribozyme variant] | 3.18 | 32.2 | 5.78 | 4.45 | 2.91 | 4.85
20 | AUUUAGCUAGGUCAUCGGGUG [Fam2.2 aminoacylation ribozyme variant] | 4 | 50.1 | 5.39 | 6.01 | 3.83 | 4.72
21 | AUUUAUCUAGGUCAUCGGGUG [Fam2.2 aminoacylation ribozyme variant] | 2.45 | 20.1 | 4.97 | 4.3 | 3.08 | 3.91
22 | AUUUCCAUGGUCAUCGAGUGA [Fam2.1 aminoacylation ribozyme variant] | 5.09 | 52.5 | 9.67 | 12 | 5.22 | 9.56
23 | AUUUCCCGGGUCAUCGAGUGA [Fam2.1 aminoacylation ribozyme variant] | 3.93 | 45.6 | 6.51 | 6.24 | 3.37 | 5.43

Reference: the supplement of paper PMC9233669
